Target: Nsp9 (SARS-CoV-2, UniProt P0DTD1 4141-4253)
Assay: EMSA
Details: protein: recombinant; tags: C-terminal […]; (pET21b); chain copies: 2; label: 5' biotin; single strand

TTTTTTTTTTTTTTTTTTTTTTTTTTTTTTTTTTTTTTTTTTTTT (ssDNA) [dT45]
apparent K (half saturation): 33.5 ± 2.5 µM
